# Test results taken from patent US20130289253A1.
# Values joined by “and” are separate entries in the source; they are usually repeats but may differ in a detail not shown here. Equal values may be shown once. Read-outs that look alike come from different tables or passages of the source.
# What was measured:
# control (Fig. 49) [1] = target: control (Fig. 49)
# control (Fig. 49) [2] = target: control (Fig. 49); remark: listed apart in the source
substance,measurement,setting,value
DR4 2×His DTB-HA306-318 complexes (DTB-streptactin purified monomers) (from UniProt P01903 26-216) (peptide-MHC),% of cells in Q2 (multimer+ CD4+),control (Fig. 49) [1],0.535% and 0.421%
same,% of cells in Q2 (multimer+ CD4+),control (Fig. 49) [2],0.985% and 0.623%
